Laboratory results: patent US20220387586A1 (Hoffmann-La Roche, published 2022)

T1: LAG3 on PD1+LAG3+ human U2OS cells (Homo sapiens (Human), UniProt P18627 23-525)
T1 construct: also called cellular LAG3 (dimerization assay); not shown: subunit of the reporter enzyme fused to the cytosolic C-terminus
T1 sequence: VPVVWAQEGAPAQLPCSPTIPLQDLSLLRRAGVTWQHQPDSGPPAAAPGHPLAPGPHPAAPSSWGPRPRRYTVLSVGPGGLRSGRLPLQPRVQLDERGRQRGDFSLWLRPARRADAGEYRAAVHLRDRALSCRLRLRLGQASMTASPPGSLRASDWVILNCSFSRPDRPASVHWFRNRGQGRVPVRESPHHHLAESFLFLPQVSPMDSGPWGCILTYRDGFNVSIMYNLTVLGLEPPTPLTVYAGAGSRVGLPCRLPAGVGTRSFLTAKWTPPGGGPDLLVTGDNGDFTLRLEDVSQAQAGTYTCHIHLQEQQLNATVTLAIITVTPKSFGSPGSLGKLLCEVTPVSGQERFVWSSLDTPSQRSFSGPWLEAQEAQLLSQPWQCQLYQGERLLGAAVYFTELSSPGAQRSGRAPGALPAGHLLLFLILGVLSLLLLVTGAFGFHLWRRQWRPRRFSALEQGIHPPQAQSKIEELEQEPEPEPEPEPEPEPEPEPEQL

T2: biotinylated-Lag3 (UniProt P18627 23-450, limits assumed, biotinylated)
T2 construct: Probably a human LAG3 ECD construct; also called Lag3 (MHCII/ELISA)
T2 sequence (looked up): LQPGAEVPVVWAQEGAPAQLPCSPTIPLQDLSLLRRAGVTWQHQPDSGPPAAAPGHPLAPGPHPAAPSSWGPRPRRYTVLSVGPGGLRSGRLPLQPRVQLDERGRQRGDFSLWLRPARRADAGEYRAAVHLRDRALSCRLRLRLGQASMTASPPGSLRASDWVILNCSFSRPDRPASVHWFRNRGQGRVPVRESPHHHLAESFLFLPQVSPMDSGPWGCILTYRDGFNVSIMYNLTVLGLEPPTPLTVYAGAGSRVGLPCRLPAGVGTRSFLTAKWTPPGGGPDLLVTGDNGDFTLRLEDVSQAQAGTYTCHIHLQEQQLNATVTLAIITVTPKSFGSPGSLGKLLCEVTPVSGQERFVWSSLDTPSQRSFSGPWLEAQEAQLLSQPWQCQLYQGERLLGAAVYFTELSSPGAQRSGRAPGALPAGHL

T3: recombinant Human LAG-3 Fc Chimera Protein (R&D Systems, 2319-L3) (human, UniProt P18627 29-450)
T3 construct: Bought protein; also called huLAG3; not shown: Fc part of the chimera
T3 sequence: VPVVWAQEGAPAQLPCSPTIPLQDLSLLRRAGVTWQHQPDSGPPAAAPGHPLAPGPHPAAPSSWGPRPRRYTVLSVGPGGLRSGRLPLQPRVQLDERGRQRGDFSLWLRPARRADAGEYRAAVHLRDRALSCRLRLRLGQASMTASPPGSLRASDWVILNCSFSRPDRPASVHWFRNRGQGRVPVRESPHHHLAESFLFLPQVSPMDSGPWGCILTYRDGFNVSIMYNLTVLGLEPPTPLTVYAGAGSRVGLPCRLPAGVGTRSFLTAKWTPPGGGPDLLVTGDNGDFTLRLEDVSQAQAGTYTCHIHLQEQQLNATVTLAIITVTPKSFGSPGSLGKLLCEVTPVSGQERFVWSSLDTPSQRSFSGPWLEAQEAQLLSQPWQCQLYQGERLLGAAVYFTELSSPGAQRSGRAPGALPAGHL

T4: LAG3 on cells (recombinant CHO cells expressing Lag3) (human, UniProt P18627 29-525)
T4 construct: The cell ELISA paragraphs say only 'Lag3'; also called CHO-LAG3; Lag3 cells
T4 sequence: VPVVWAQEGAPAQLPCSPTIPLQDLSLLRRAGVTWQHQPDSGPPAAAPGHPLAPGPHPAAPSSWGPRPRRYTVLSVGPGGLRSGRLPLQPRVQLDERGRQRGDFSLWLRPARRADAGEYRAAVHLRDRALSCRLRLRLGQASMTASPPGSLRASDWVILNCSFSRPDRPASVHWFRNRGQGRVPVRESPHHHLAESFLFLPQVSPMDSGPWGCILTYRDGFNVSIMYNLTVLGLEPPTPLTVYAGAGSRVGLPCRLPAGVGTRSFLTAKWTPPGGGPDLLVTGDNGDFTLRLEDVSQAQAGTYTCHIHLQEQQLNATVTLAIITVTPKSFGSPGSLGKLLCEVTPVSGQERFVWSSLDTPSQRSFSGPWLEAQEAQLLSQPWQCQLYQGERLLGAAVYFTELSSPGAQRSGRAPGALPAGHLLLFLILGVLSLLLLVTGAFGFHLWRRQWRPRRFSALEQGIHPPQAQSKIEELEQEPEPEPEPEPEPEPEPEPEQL


Tests used:
[1] = target: T5, PD1 on PD1+LAG3+ human U2OS cells (UniProt Q15116 25-288); assay: cellular PD1/LAG3 dimerization assay on PD1+LAG3+ U2OS cells, chemoluminescence; the signal needs PD1 and LAG3 bound at once
T5 sequence (Q15116 25-288): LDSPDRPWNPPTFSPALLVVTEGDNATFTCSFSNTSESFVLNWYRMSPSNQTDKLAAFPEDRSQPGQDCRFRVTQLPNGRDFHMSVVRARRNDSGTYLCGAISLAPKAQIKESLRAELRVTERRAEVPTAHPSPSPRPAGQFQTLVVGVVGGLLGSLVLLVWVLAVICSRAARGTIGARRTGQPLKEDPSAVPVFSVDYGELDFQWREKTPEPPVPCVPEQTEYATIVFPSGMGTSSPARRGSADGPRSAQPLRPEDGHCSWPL
Protocol: (§1) For this specific interaction, the cytosolic C-terminal ends of both receptors were individually fused to heterologous subunits of a reporter enzyme.
(§2) On the next day cell medium was discarded and replaced by fresh medium. Antibody or ligand dilutions were prepared and titrated amounts of indicated (bispecific) antibodies were added and incubated at 37° C. for 2 hours. Next, a substrate/buffer mix (e.g. PathHunterFlash detection reagent) was added and again incubated for 1h. For measuring chemoluminescence induced upon simultaneous binding and dimerization a Tecan infinite reader was used.

[2] = target: T1, LAG3 on PD1+LAG3+ human U2OS cells; assay: as above
Protocol: as §1, §2

biotinylated-Lag3 = target: T2, biotinylated-Lag3; assay: ELISA, inhibition of biotinylated-Lag3 binding to MHC-II on A375 cells (competitor MHC-II)
Protocol: 25 μl/well of A375 cells (10000 cells/well) were seeded into tissue culture treated 384-well plates (Corning, 3701) and incubated at 37° C. overnight. […] After washing (1×90 μl in PBST) cells were fixed by addition of 30 μl/well glutaraldehyde to a final concentration of 0.05% (Sigma Cat.No: G5882), 10 min at room temperature. After washing (3×90 μl/well with PBST-buffer) 25 μl/well Poly-HRP40-Streptavidin (Fitzgerald, 65R-S104PHRPx) was added in a 1:2000 or 1:8000 dilution and incubated at RT for 1 h. After washing (3×90 μl/well with PBST-buffer) 25 μl/well TMB substrate (Roche, 11835033001) was added and incubated for 2 to 10 min. Measurement took place on a Tecan Safire 2 instrument at 370/492 nm.

[3] = target: T3, recombinant Human LAG-3 Fc Chimera …; assay: ELISA on coated Human LAG-3 Fc Chimera (rel. EC50)
Protocol: After washing (3×90 μl/well with PBST-buffer) each well was incubated with 90 μl blocking buffer (PBS+2% BSA+0.05% Tween 20) for 1 h at room temperature. […] After washing (3×90 μl/well with PBST-buffer) 25 μl/well goat anti-Human Ig κ chain antibody-HRP conjugate (Milipore, AP502P) was added in a 1:2000 dilution and incubated at RT for 1 h. After washing (3×90 μl/well with PBST-buffer) 25 μl/well TMB substrate (Roche, 11835033001) was added and incubated for 2-10 min. Measurement took place on a Tecan Safire 2 instrument at 370/492 nm.

[4] = target: T4, LAG3 on cells (recombinant CHO cells …); assay: cell ELISA on recombinant CHO cells expressing Lag3 (rel. EC50)
Protocol: After washing (1×90 μl in PBST) cells were fixed by addition of 30 μl/well glutaraldehyde to a final concentration of 0.05% (Sigma Cat.No: G5882), 10 min at room temperature. After washing (3×90 μl/well with PBST-buffer) 25 μl/well goat anti-Human Ig κ chain antibody-HRP conjugate (Milipore, AP502P) was added in a 1:1000 dilution and incubated at RT for 1 h. After washing (3×90 μl/well with PBST-buffer) 25 μl/well TMB substrate (Roche, 11835033001) was added and incubated for 6-10 min. Measurement took place on a Tecan Safire 2 instrument at 370/492 nm.

[5] = target: T6, biotinylated PD1-ECD-AviHis (human, UniProt Q15116 25-170, biotinylated); assay: ELISA on coated biotinylated PD1-ECD-AviHis (rel. EC50)
T6 construct: also called huPD1; hu PD1; not shown: Avi-His tag
T6 sequence (Q15116 25-170): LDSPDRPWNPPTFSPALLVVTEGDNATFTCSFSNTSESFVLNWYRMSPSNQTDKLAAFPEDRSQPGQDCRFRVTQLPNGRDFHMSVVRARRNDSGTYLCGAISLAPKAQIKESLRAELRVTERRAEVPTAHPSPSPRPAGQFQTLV
Protocol: After washing (3×90 μl/well with PBST-buffer) 25 μl/well goat-anti-human H+L-POD (JIR, JIR109-036-098) was added in 1:5000 dilution and incubated at RT for 1 h on a shaker. After washing (3×90 μl/well with PBST-buffer) 25 μl/well of TMB substrate (Roche, 11835033001) was added and incubated until OD 2-3. Measurement took place at 370/492 nm.

[6] = target: T7, full-length human PD1 on cells (human, UniProt Q15116 25-288); assay: cell ELISA on CHO-K1 cells expressing full-length human PD1 (rel. EC50)
T7 construct: also called CHO-PD1
T7 sequence (Q15116 25-288 limits assumed): as the sequence (Q15116 25-288) above
Protocol: (to avoid internalization). After washing carefully (1×90 μl/well PBST) cells were fixed by adding 30 μl/well 0.05% Glutaraldehyde (Sigma, Cat.No: G5882, 25%) diluted in 1×PBS-buffer and incubated for 10 min at RT. After washing (3×90 μl/well PBST) 25 μl/well secondary antibody was added for detection: goat-anti-human H+L-POD (JIR, JIR109-036-088)/Sheep-anti-mouse-POD (GE NA9310) followed by 1 h incubation at RT on shaker. After washing (3×90 μl/well PBST) 25 μl/well TMB substrate solution (Roche 11835033001) was added and incubated until OD 1.0-2.0. Plates were measured at 370/492 nm.

[7] = target: T5, PD1 on PD1+LAG3+ human U2OS cells; assay: cellular PD1/LAG3 dimerization assay, 7500 PD1+LAG3+ U2OS cells a well, 20 h at 37 °C, chemoluminescence; the signal needs PD1 and LAG3 bound at once
Protocol: Next, assay plates were equilibrated to room temperature and a substrate/buffer mix (PathHunterFlash detection reagent, Discoverx) was added and again incubated for 4h. For measuring chemoluminescence induced upon simultaneous binding and dimerization a SpectraMax L plate reader (Molecular Devices) was used.

[8] = target: T7, full-length human PD1 on cells; assay: cell-based or functional assay
[9] = target: T4, LAG3 on cells (recombinant CHO cells …); assay: cell-based or functional assay

Row | EC50 (read off the curve) [1] [µg/mL] | EC50 (read off the curve) [2] [µg/mL] | IC50 (biotinylated-Lag3) [nM] | EC50 [3] [nM] | EC50 [4] [nM] | EC50 [5] [nM] | EC50 [6] [nM] | EC50 (read off the curve) [7] [nM] | EC50 [nM], PD-1 & LAG-3 combo reporter assay (NFAT luciferase) [8] [nM] | EC50 [nM], PD-1 & LAG-3 combo reporter assay (NFAT luciferase) [9] [nM] | Binder
1 | ~0.06 | ~0.06 | 0.47 | 0.02 | 0.64 | 0.03 | 0.31 | – | – | – | PD1/LAG3 1252 (bispecific antibody, human IgG1, kappa, L234A L235A, 2+1 format: two LAG3 Fabs, one PD1 crossFab fused to the C-terminus of the Fc knob heavy chain) heavy 1: not shown heavy 2: QVQLQQWGAGLLKPSETLSLTCAVYGGSFSDYYWNWIRQPPGKGLEWIGEINHNGNTNSNPSLKSRVTLSLDTSKNQFSLKLRSVTAADTAVYYCAFGYSDYEYNWFDPWGQGTLVTVSSASTKGPSVFPLAPSSKSTSGGTAALGCLVEDYFPEPVTVSWNSGALTSGVHTFPAVLQSSGLYSLSSVVTVPSSSLGTQTYICNVNHKPSNTKVDEKVEPKSCDKTHTCPPCPAPEAAGGPSVFLFPPKPKDTLMISRTPEVTCVVVDVSHEDPEVKFNWYVDGVEVHNAKTKPREEQYNSTYRVVSVLTVLHQDWLNGKEYKCKVSNKALGAPIEKTISKAKGQPREPQVCTLPPSRDELTKNQVSLSCAVKGFYPSDIAVEWESNGQPENNYKTTPPVLDSDGSFFLVSKLTVDKSRWQQGNVFSCSVMHEALHNHYTQKSLSLSPGK light 1: DIVMTQSPDSLAVSLGERATINCKASESVDTSDNSFIHWYQQKPGQSPKLLIYRSSTLESGVPDRFSGSGSGTDFTLTISSLQAEDVAVYYCQQNYDVPWTFGQGTKVEIKSSASTKGPSVFPLAPSSKSTSGGTAALGCLVKDYFPEPVTVSWNSGALTSGVHTFPAVLQSSGLYSLSSVVTVPSSSLGTQTYICNVNHKPSNTKVDKKVEPKSC light 2: not shown
2 | – | – | – | – | – | – | – | ~0.06 | 2.2 | 2.2 | PD1/LAG3 0725 (bispecific antibody, human IgG1, kappa, L234A L235A, 1+1 trans format: LAG3 Fab fused to the C-terminus of the Fc hole chain) heavy 1: not shown heavy 2: DKTHTCPPCPAPEAAGGPSVFLFPPKPKDTLMISRTPEVTCVVVDVSHEDPEVKFNWYVDGVEVHNAKTKPREEQYNSTYRVVSVLTVLHQDWLNGKEYKCKVSNKALGAPIEKTISKAKGQPREPQVCTLPPSRDELTKNQVSLSCAVKGFYPSDIAVEWESNGQPENNYKTTPPVLDSDGSFFLVSKLTVDKSRWQQGNVFSCSVMHEALHNHYTQKSLSLSPGKGGGGSGGGGSEVQLLESGGGLVQPGGSLRLSCAASGFIFDDYTMNWVRQAPGKGLEWVAVISWDGGGTYYTDSVKGRFTISRDDFKNTLYLQMNSLRAEDTAVYYCAKGLTDTTLYGSDYWGQGTLVTVSSASTKGPSVFPLAPSSKSTSGGTAALGCLVEDYFPEPVTVSWNSGALTSGVHTFPAVLQSSGLYSLSSVVTVPSSSLGTQTYICNVNHKPSNTKVDEKVEPKSC light 1: EVQLLESGGGLVQPGGSLRLSCAASGFSFSSYTMSWVRQAPGKGLEWVATISGGGRDIYYPDSVKGRFTISRDNSKNTLYLQMNSLRAEDTAVYYCVLLTGRVYFALDSWGQGTLVTVSSASVAAPSVFIFPPSDEQLKSGTASVVCLLNNFYPREAKVQWKVDNALQSGNSQESVTEQDSKDSTYSLSSTLTLSKADYEKHKVYACEVTHQGLSSPVTKSFNRGEC light 2: not shown
